This passage reports abundance fitness results from the Human Domainome abundance scans (Beltran et al. 2025).

± gives the uncertainty stated by the source.

The labels stand for the following.
B1: Tyrosine-protein kinase BTK, residues 215 to 273; numbered along this chain, Q06187 (parent)
chain: ELKKVVALYDYMPMNANDLQLRKGDEYFILEESNLPWWRARDKNGQEGYIPSNYVTEAE

In the data set the parent is B1. Briefly: abundance fitness (aPCA) (normalised: wild type 0, dead -1); higher = more abundant; growth selection in yeast, the domain comes from the species named. Particulars: Homo sapiens.
For Y11N, the abundance fitness was -0.383 ± 0.075.

As to Y11V, the abundance fitness is -0.298 ± 0.042.

On to Y11Q, for which the abundance fitness is -0.316 ± 0.065.

In the case of Y11W, the abundance fitness stood at 0.017 ± 0.04.

On to Y11H, for which the abundance fitness is -0.155 ± 0.07.

With K4M, the abundance fitness is -0.133 ± 0.061.

For the variant K4N, the abundance fitness is -0.339 ± 0.11.

Turning to K4H, the abundance fitness is -0.322 ± 0.09.

Consider K4P, for which the abundance fitness was -0.15 ± 0.066.

For K4E, the abundance fitness is -0.135 ± 0.054.

As to A58N, the abundance fitness is -0.012 ± 0.073.

For the variant A58L, the abundance fitness is -0.113 ± 0.039.

As to A58K, the abundance fitness was -0.005 ± 0.086.

For the variant A58G, the abundance fitness is -0.01 ± 0.036.

Regarding A58Y, the abundance fitness is -0.016 ± 0.075.

In the case of A58V, the abundance fitness was found to be 0.001 ± 0.037.

Consider N34R, for which the abundance fitness was -0.002 ± 0.043.

Turning to N34A, the abundance fitness worked out at 0.026 ± 0.044.

As to N34D, the abundance fitness came out at 0.073 ± 0.074.

For the variant N34E, the abundance fitness came out at 0.037 ± 0.043.

As for N34Q, the abundance fitness came to 0.118 ± 0.058.

In the case of N34V, the abundance fitness was 0.065 ± 0.033.

Regarding N34M, the abundance fitness turned out to be 0.014 ± 0.059.

Turning to L35H, the abundance fitness was -0.002 ± 0.079.

Regarding L35A, the abundance fitness is -0.08 ± 0.057.

As for L35C, the abundance fitness was -0.082 ± 0.049.

Turning to L35V, the abundance fitness is -0.017 ± 0.039.

L35W: the abundance fitness is -0.015 ± 0.043.

Regarding L35I, the abundance fitness came out at 0.005 ± 0.065.

In the case of E26V, the abundance fitness was -0.032 ± 0.041.

As to E26Q, the abundance fitness is -0.079 ± 0.061.

For E26C, the abundance fitness is -0.084 ± 0.061.

On to E26K, for which the abundance fitness was -0.01 ± 0.056.

Regarding E26W, the abundance fitness is -0.037 ± 0.047.

For the variant E26D, the abundance fitness was -0.061 ± 0.078.

As for E26S, the abundance fitness came out at 0 ± 0.037.

E47W: the abundance fitness is -0.104 ± 0.044.

For the variant E47T, the abundance fitness is -0.061 ± 0.042.

Turning to E47A, the abundance fitness was -0.086 ± 0.051.

Consider E47L, for which the abundance fitness is -0.163 ± 0.035.

Turning to E47N, the abundance fitness is -0.115 ± 0.067.

Consider E47G, for which the abundance fitness is -0.451 ± 0.05.

For the variant E47Y, the abundance fitness is -0.268 ± 0.057.

With E47K, the abundance fitness was -0.107 ± 0.061.

For M12F, the abundance fitness was -0.062 ± 0.068.

On to M12S, for which the abundance fitness was determined as 0.007 ± 0.037.

On to M12P, for which the abundance fitness was -0.008 ± 0.048.

Take M12W: the abundance fitness is -0.07 ± 0.039.

For the variant M12T, the abundance fitness was found to be 0.016 ± 0.051.

For N17I, the abundance fitness is -0.187 ± 0.075.

In the case of N17P, the abundance fitness was -0.123 ± 0.045.

N17W: the abundance fitness was -0.115 ± 0.034.

N17A: the abundance fitness is -0.041 ± 0.035.

For the variant E57K, the abundance fitness is -0.047 ± 0.053.

On to E57R, for which the abundance fitness was -0.065 ± 0.033.

With E57D, the abundance fitness is -0.072 ± 0.074.

With E57A, the abundance fitness was -0.025 ± 0.042.

On to E57V, for which the abundance fitness was found to be 0.03 ± 0.044.

In the case of E57M, the abundance fitness is -0.022 ± 0.056.

For the variant I29M, the abundance fitness was -0.229 ± 0.043.

As for I29A, the abundance fitness was -0.194 ± 0.046.

On to I29K, for which the abundance fitness was -0.241 ± 0.054.

For the variant L21K, the abundance fitness is -0.892 ± 0.12.

On to L21N, for which the abundance fitness is -0.806 ± 0.22.

Turning to L21P, the abundance fitness is -0.724 ± 0.082.

Take L21C: the abundance fitness is -0.349 ± 0.068.

Take L21Q: the abundance fitness is -0.754 ± 0.09.

Turning to L21D, the abundance fitness was -1.05 ± 0.16.

L21Y: the abundance fitness was -1.09 ± 0.12.

Consider L21F, for which the abundance fitness is -1.01 ± 0.12.

As for L21R, the abundance fitness was -0.998 ± 0.069.

Consider L21V, for which the abundance fitness is -0.079 ± 0.035.

As for L21A, the abundance fitness was -0.671 ± 0.057.

As to K3N, the abundance fitness was -0.112 ± 0.056.

As to K3G, the abundance fitness was -0.227 ± 0.042.

Regarding K3E, the abundance fitness is -0.309 ± 0.07.

K3P: the abundance fitness was -0.234 ± 0.064.

In the case of K3Y, the abundance fitness was -0.205 ± 0.058.

With K3M, the abundance fitness was determined as 0 ± 0.05.

K3Q: the abundance fitness was -0.293 ± 0.067.

For the variant L30A, the abundance fitness is -0.12 ± 0.05.

As to L30P, the abundance fitness is -0.365 ± 0.052.

In the case of P36D, the abundance fitness was -0.013 ± 0.065.

On to P36I, for which the abundance fitness is -0.294 ± 0.29.

On to P36V, for which the abundance fitness was -0.077 ± 0.055.

Take E1L: the abundance fitness was -0.074 ± 0.067.

As to E1C, the abundance fitness was -0.252 ± 0.16.

E1R: the abundance fitness is -0.15 ± 0.099.

As to E1P, the abundance fitness was -0.305 ± 0.16.

In the case of E1H, the abundance fitness was -0.174 ± 0.11.

Turning to E1W, the abundance fitness was -0.088 ± 0.079.

Consider E1V, for which the abundance fitness was -0.074 ± 0.048.

For the variant E1K, the abundance fitness was -0.035 ± 0.087.

For E1A, the abundance fitness was -0.172 ± 0.054.

For the variant E1T, the abundance fitness was -0.288 ± 0.1.

On to Y54A, for which the abundance fitness worked out at 0.02 ± 0.05.

For Y54G, the abundance fitness stood at 0.037 ± 0.042.

In the case of Y54C, the abundance fitness was -0.037 ± 0.05.

On to Y54K, for which the abundance fitness was -0.159 ± 0.07.

Consider Y54P, for which the abundance fitness is -0.93 ± 0.099.

For the variant Q46H, the abundance fitness worked out at 0.04 ± 0.069.

With Q46E, the abundance fitness was -0.005 ± 0.073.

On to Q46G, for which the abundance fitness was -0.036 ± 0.045.

In the case of Q46W, the abundance fitness was -0.161 ± 0.045.

In the case of Q46A, the abundance fitness turned out to be 0.014 ± 0.051.

Q46T: the abundance fitness is -0.048 ± 0.052.

For Q46I, the abundance fitness is 0.047 ± 0.061.

For the variant N53R, the abundance fitness was -0.03 ± 0.04.

On to N53F, for which the abundance fitness was -0.137 ± 0.066.

As for N53C, the abundance fitness is -0.164 ± 0.077.

Take N53L: the abundance fitness is -0.099 ± 0.037.

Take N53E: the abundance fitness is -0.016 ± 0.041.

N53K: the abundance fitness was -0.025 ± 0.052.

Take N53W: the abundance fitness was -0.137 ± 0.054.

Regarding N53Y, the abundance fitness is -0.202 ± 0.071.

On to N53A, for which the abundance fitness was -0.005 ± 0.044.

In the case of L19V, the abundance fitness is -0.314 ± 0.034.

In the case of L19C, the abundance fitness was -0.444 ± 0.058.

With L19N, the abundance fitness was -0.701 ± 0.1.

L19G: the abundance fitness is -0.851 ± 0.045.

For the variant L19Q, the abundance fitness is -0.711 ± 0.059.

Regarding L19A, the abundance fitness was -0.796 ± 0.056.

Regarding L19Y, the abundance fitness was -0.66 ± 0.059.

As to L19I, the abundance fitness is -0.124 ± 0.067.

As for L19S, the abundance fitness was -0.695 ± 0.042.

Take R39K: the abundance fitness is -0.064 ± 0.051.

Take R39Y: the abundance fitness was -0.171 ± 0.07.

Turning to R39C, the abundance fitness is -0.181 ± 0.054.

For the variant R39Q, the abundance fitness is -0.031 ± 0.06.

On to R39W, for which the abundance fitness is -0.042 ± 0.046.

For the variant P13H, the abundance fitness was -0.51 ± 0.11.

On to P13S, for which the abundance fitness is -0.081 ± 0.041.

With P13F, the abundance fitness was -1.08 ± 0.27.

As to P13W, the abundance fitness is -0.778 ± 0.073.

For the variant P13G, the abundance fitness is -0.068 ± 0.041.

In the case of P13M, the abundance fitness was -0.406 ± 0.077.

Consider E32Y, for which the abundance fitness is -0.083 ± 0.061.

As to E32Q, the abundance fitness was found to be 0.028 ± 0.075.

In the case of E32P, the abundance fitness was -0.007 ± 0.066.

E32T: the abundance fitness was -0.013 ± 0.072.

As to E32R, the abundance fitness was -0.038 ± 0.05.

On to E32F, for which the abundance fitness is -0.173 ± 0.076.

Take E32H: the abundance fitness is -0.114 ± 0.079.

Turning to E32A, the abundance fitness was 0.016 ± 0.094.

M14Q: the abundance fitness was 0.038 ± 0.064.

M14A: the abundance fitness was found to be 0.051 ± 0.039.

In the case of M14V, the abundance fitness is 0.026 ± 0.032.

Consider M14N, for which the abundance fitness was found to be 0.059 ± 0.062.

With M14L, the abundance fitness is -0.018 ± 0.03.

On to M14T, for which the abundance fitness was -0.028 ± 0.04.

Take M14Y: the abundance fitness was -0.15 ± 0.12.

In the case of M14H, the abundance fitness was 0.068 ± 0.1.

On to M14F, for which the abundance fitness came to 0.022 ± 0.044.

Turning to G24C, the abundance fitness is -0.472 ± 0.087.

Take G24P: the abundance fitness was -0.748 ± 0.092.

On to G24N, for which the abundance fitness is -0.096 ± 0.093.

On to G24D, for which the abundance fitness is -0.09 ± 0.052.

On to Y9D, for which the abundance fitness is -0.007 ± 0.061.

Regarding Y9E, the abundance fitness turned out to be 0.001 ± 0.039.

On to Y9L, for which the abundance fitness is 0.056 ± 0.029.

For Y9A, the abundance fitness came out at 0.062 ± 0.042.

With Y9N, the abundance fitness was 0.07 ± 0.057.

Consider Y9C, for which the abundance fitness was determined as 0.006 ± 0.05.

As for Y9F, the abundance fitness turned out to be 0.012 ± 0.05.

Consider Y9Q, for which the abundance fitness amounted to 0.098 ± 0.051.

As to Y9R, the abundance fitness was 0.057 ± 0.031.

On to Y9M, for which the abundance fitness was found to be 0.053 ± 0.038.
